Measured values taken from PMC3816256, “Sgol2 provides a regulatory platform that coordinates essential cell cycle processes during meiosis I in oocytes” (eLife, 2013).

B1: MBP-Sgol2cc-Flag L51A/N54A/R56A (3A) (domain or fragment, mouse, UniProt Q7TSY8 31-117, looked up)
chain: SLASKIKAKILNNSSIFKISAKHANAALARALSKEKENSRRITTEKMQLQKEVEKLNFENTFLRLKLNTLNKKLVEIESHVSNDLLT
notes: In the dimerization assays the second copy (bait) carried a His tag in place of Flag and the same substitutions; also called 3A triple mutation; 3A mutant; source: also His- and Flag-tagged copies co-expressed, in extract; not shown: MBP, N-terminal, kept; Flag, C-terminal, kept
B2: MBP-Sgol2cc-Flag, wild type (mouse Sgol2 coiled coil region 31-117) (domain or fragment, UniProt Q7TSY8 31-117, looked up)
chain: SLASKIKAKILNNSSIFKISLKHNNRALARALSKEKENSRRITTEKMQLQKEVEKLNFENTFLRLKLNTLNKKLVEIESHVSNDLLT
notes: In the dimerization assays the second copy (bait) carried a His tag in place of Flag (MBP-Sgol2cc-His, pET28b backbone; Flag copy in pMAL-c2x); also called MBP-mSgol2cc-Flag; MBP-Sgol2cc-His; source: also His- and Flag-tagged copies co-expressed, in extract; not shown: MBP, N-terminal, kept; Flag, C-terminal, kept
B3: MBP-Sgol2cc-Flag L51A (domain or fragment, mouse, UniProt Q7TSY8 31-117, looked up)
chain: SLASKIKAKILNNSSIFKISAKHNNRALARALSKEKENSRRITTEKMQLQKEVEKLNFENTFLRLKLNTLNKKLVEIESHVSNDLLT
notes: In the dimerization assay the second copy (bait) carried a His tag in place of Flag and the same substitution; not shown: MBP, N-terminal, kept; Flag, C-terminal, kept
B4: MBP-Sgol2cc-Flag N54A (domain or fragment, mouse, UniProt Q7TSY8 31-117, looked up)
chain: SLASKIKAKILNNSSIFKISLKHANRALARALSKEKENSRRITTEKMQLQKEVEKLNFENTFLRLKLNTLNKKLVEIESHVSNDLLT
notes: as for B3
B5: MBP-Sgol2cc-Flag N55I (domain or fragment, mouse, UniProt Q7TSY8 31-117, looked up)
chain: SLASKIKAKILNNSSIFKISLKHNIRALARALSKEKENSRRITTEKMQLQKEVEKLNFENTFLRLKLNTLNKKLVEIESHVSNDLLT
notes: as for B3
B6: MBP-Sgol2cc-Flag R56A (domain or fragment, mouse, UniProt Q7TSY8 31-117, looked up)
chain: SLASKIKAKILNNSSIFKISLKHNNAALARALSKEKENSRRITTEKMQLQKEVEKLNFENTFLRLKLNTLNKKLVEIESHVSNDLLT
notes: as for B3
B7: MBP-Sgol2cc-Flag E82A (domain or fragment, mouse, UniProt Q7TSY8 31-117, looked up)
chain: SLASKIKAKILNNSSIFKISLKHNNRALARALSKEKENSRRITTEKMQLQKAVEKLNFENTFLRLKLNTLNKKLVEIESHVSNDLLT
notes: as for B3
B8: MBP-Sgol2cc-Flag E82K (domain or fragment, mouse, UniProt Q7TSY8 31-117, looked up)
chain: SLASKIKAKILNNSSIFKISLKHNNRALARALSKEKENSRRITTEKMQLQKKVEKLNFENTFLRLKLNTLNKKLVEIESHVSNDLLT
notes: as for B3

Biological target: the molecule itself
Assay: pull-down; MBP-Sgol2cc-His and MBP-Sgol2cc-Flag co-expressed in E. coli; 10 mg of extract on Talon beads 2 hr at 4°C (50 mM sodium phosphate pH 7, 250 mM NaCl, 10% glycerol, 0.02% Triton X-100), washes with 23 mM imidazole; blots with anti-Flag and anti-His; the paper calls it co-immunoprecipitation

Question: Does B1 bind?
Answer: binds

Biological target: the molecule itself
Assay: pull-down; purified Flag-tagged MBP-Sgol2cc (31-117) pulled down by purified His-tagged MBP-Sgol2cc (31-117) with the same substitution; western blots

Question: Does B2 bind?
Answer: binds

Question: Does B3 bind?
Answer: binds

Question: Does B4 bind?
Answer: binds

Question: Does B5 bind?
Answer: binds

Question: Does B6 bind?
Answer: binds

Question: Does B7 bind?
Answer: binds

Question: Does B8 bind?
Answer: binds
